Measured values from patent US20230357447A1 (JANUX THERAPEUTICS, published 2023).

Experiments:
[1] = target: T1, anti-CD28 scFv (VH-linker 1-VL) (biotinylated (site not stated)); assay: phage ELISA; scFv wells pre-incubated with soluble CD28 (competitor);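 also: crude clonal phage supernatants added to wells pretreated with soluble CD28 in blocking buffer, bound phage read via HRP-linked anti-M13 antibody, reference wells got blocking buffer only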
T1 construct: Captured as biotinylated scFv on neutravidin coated plates in the phage ELISA

[2] = target: T1, anti-CD28 scFv (VH-linker 1-VL); assay: phage ELISA; biotinylated scFv on neutravidin plate; anti-M13-HRP;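 also: crude clonal phage supernatant added to wells pre-incubated with soluble CD28 protein or only blocking buffer, then washed, bound phage read out with an HRP-linked anti-M13 antibody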
Experimental: Clonal phage were harvested as crude supernatants and screened via standard enzyme linked immunosorbent assays (ELISAs). […] Prior to the addition of clonal phage, wells were incubated with blocking buffer and CD28 soluble protein or blocking buffer alone. Without washing or aspirating, clonal phage supernatants were then added to the wells and incubated for a short time. Wells were then washed followed by detection of bound phage using a horse radish peroxidase conjugated anti-M13 antibody.

T1 sequence (scFv, as listed by the source): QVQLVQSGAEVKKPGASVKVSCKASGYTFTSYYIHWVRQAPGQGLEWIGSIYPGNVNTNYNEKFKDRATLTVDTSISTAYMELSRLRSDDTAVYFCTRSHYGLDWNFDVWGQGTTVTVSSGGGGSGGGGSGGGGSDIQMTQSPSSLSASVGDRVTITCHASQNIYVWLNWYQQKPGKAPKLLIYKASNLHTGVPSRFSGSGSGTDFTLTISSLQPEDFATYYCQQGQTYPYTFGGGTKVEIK

MDWCPWDMWDKCFN (on phage (pIII fusion)) [Phage-217 clonal phage peptide]
CD28 scFv signal in presence of CD28 [1]: 0.108 | CD28 scFv signal [2]: 0.586

MDWCPRDRWIDCFN (on phage (pIII fusion)) [Phage-226 clonal phage peptide]
CD28 scFv signal in presence of CD28 [1]: 0.131 | CD28 scFv signal [2]: 0.339

MDWCPRDRWSDCFN (on phage (pIII fusion)) [Phage-227 clonal phage peptide]
CD28 scFv signal in presence of CD28 [1]: 0.074 | CD28 scFv signal [2]: 0.102

TTWCPTSMWLHCFD (on phage (pIII fusion)) [Phage-221 clonal phage peptide]
CD28 scFv signal in presence of CD28 [1]: 0.072 | CD28 scFv signal [2]: 0.074

MDWCPKDRWNDCYF (on phage (pIII fusion)) [Phage-224 clonal phage peptide]
CD28 scFv signal [2]: 1.09

MDWCPRDQWHNCFN (on phage (pIII fusion)) [Phage-222 clonal phage peptide]
CD28 scFv signal in presence of CD28 [1]: 0.078 | CD28 scFv signal [2]: 0.2

VPWCQIISGLECLT (on phage (pIII fusion)) [Phage-229 clonal phage peptide]
CD28 scFv signal in presence of CD28 [1]: 0.077 | CD28 scFv signal [2]: 0.174

APWCQIISGLECLT (on phage (pIII fusion)) [Phage-230 clonal phage peptide]
CD28 scFv signal in presence of CD28 [1]: 0.078 | CD28 scFv signal [2]: 0.169

MDWCPRDRWVDCFF (on phage (pIII fusion)) [Phage-223 clonal phage peptide]
CD28 scFv signal in presence of CD28 [1]: 0.14 | CD28 scFv signal [2]: 1.58

MDWCPRDRWADCFF (on phage (pIII fusion)) [Phage-225 clonal phage peptide]
CD28 scFv signal in presence of CD28 [1]: 0.089 | CD28 scFv signal [2]: 0.392

VPWCLIISGLDCLN (on phage (pIII fusion)) [Phage-231 clonal phage peptide]
CD28 scFv signal in presence of CD28 [1]: 0.09 | CD28 scFv signal [2]: 0.107

FDFCPTTMWTYCQH (on phage (pIII fusion)) [Phage-220 clonal phage peptide]
CD28 scFv signal in presence of CD28 [1]: 0.081 | CD28 scFv signal [2]: 0.086

MTWCPTSFWNRCLD (on phage (pIII fusion)) [Phage-233 clonal phage peptide]
CD28 scFv signal in presence of CD28 [1]: 0.405 | CD28 scFv signal [2]: 0.392

MDWCPRHLWFECFN (on phage (pIII fusion)) [Phage-293 clonal phage peptide]
CD28 scFv signal in presence of CD28 [1]: 0.171 | CD28 scFv signal [2]: 2.49

MDWCPRALWFECFF (on phage (pIII fusion)) [Phage-234 clonal phage peptide]
CD28 scFv signal in presence of CD28 [1]: 0.331 | CD28 scFv signal [2]: 2.67

MDWCPRHLWNECFA (on phage (pIII fusion)) [Phage-306 clonal phage peptide]
CD28 scFv signal in presence of CD28 [1]: 0.17 | CD28 scFv signal [2]: 2.39

MDWCPRHLWYECFN (on phage (pIII fusion)) [Phage-243 clonal phage peptide]
CD28 scFv signal in presence of CD28 [1]: 0.167 | CD28 scFv signal [2]: 2.41

MDWCPRHLWFECFF (on phage (pIII fusion)) [Phage-300 clonal phage peptide]
CD28 scFv signal in presence of CD28 [1]: 0.479 | CD28 scFv signal [2]: 2.45

MDWCPRHLWNECFN (on phage (pIII fusion)) [Phage-283 clonal phage peptide]
CD28 scFv signal in presence of CD28 [1]: 0.393 | CD28 scFv signal [2]: 2.65

NYWCPSSMWNRCLH (on phage (pIII fusion)) [Phage-219 clonal phage peptide]
CD28 scFv signal in presence of CD28 [1]: 0.088 | CD28 scFv signal [2]: 0.158

TFGCPTTMWNRCFA (on phage (pIII fusion)) [Phage-218 clonal phage peptide]
CD28 scFv signal in presence of CD28 [1]: 0.068 | CD28 scFv signal [2]: 0.181

MDWCARFVGYGCLD (on phage (pIII fusion)) [Phage-232 clonal phage peptide]
CD28 scFv signal in presence of CD28 [1]: 0.074 | CD28 scFv signal [2]: 0.065

ITWCHVISGLECWN (on phage (pIII fusion)) [Phage-228 clonal phage peptide]
CD28 scFv signal in presence of CD28 [1]: 0.1 | CD28 scFv signal [2]: 0.193
